Laboratory results reported in US9096835B2, “DNA polymerase” (Medical Research Council, priority 2003, dated 2015).
“Also recorded” adds a separate entry of the source. One block for each molecule: values may come before it.

Key:
Assay type in all cases: biochemical
[1] = test system: primer-template duplex with matched or mismatched 3′ terminus; test: Steady-state extension kinetics, gel-based assay; details: incorporated base is dCTP
Protocol: (§1) Kinetic parameters were determined using a gel-based assay essentially as described (16). Primers 15, 16, 17 (3′ base=G, C, A respectively) were ^32P-labeled and annealed to one of template strands 18, 19, 20 (template base=C, G, A respectively) or 21 (template base C different context). Duplex substrates were used at 50 nM final concentration in 1× Taq buffer with various concentrations of enzyme and dNTP. Reactions were carried out at 60° C. for times whereby <20% of primer-template was utilized at the highest concentration of dNTP.
(§2) Extension and incorporation kinetics of M1 and M4 for a selection of mismatches were measured using a gel-based steady-state kinetic assay (Goodman) (Tables 1 & 2). M1 and M4 respectively extend a C•C mispair 390 and 75-fold more efficiently than wtTaq. […] The gain in extension efficiency derives predominantly from increased relative Vmax values for the mutant polymerases, while Km for nucleotide substrates remains largely unchanged. For most DNA polymerases the relative efficiency of extending a given mispair (f0ext) is similar to the relative efficiency of forming it (finc) (Goodman 1993, Goodman 1990, Washington 2001). Indeed, M1 and M4 respectively incorporate dCTP opposite template base C 206- and 29-fold more efficiently than wtTaq (Table 2).

[2] = test system: primer-template duplex, correct or incorrect incoming dNTP; test: Steady-state single nucleotide incorporation kinetics, gel-based assay
Protocol: as §1, §2

undamaged template = test: Translesion replication assay, control; details: gel-extension assay, 60° C.
Protocol: (§3) Template primers 22 (undamaged) or 23 (containing a synthetic abasic site) were synthesized by Lofstrand Laboratories (Gaithersburg, Md.). Template primer 24 (containing a single cis-syn thymine dimer), was synthesized as described (34). Primer 25 was ^32P-labeled and annealed to one of the three templates 22, 23, 24 (at a primer template ratio of molar 1:1.5) and extended in 40 mM Tris.HCl at pH 8.0, 5 mM MgCl2, 100 μM of each dNTP, 10 mM DTT, 250 μg/ml BSA, 2.5% glycerol, 10 nM primer-template DNA and 0.1 Unit of polymerase at 60° C. for various times.

[3] = test system: template containing an abasic site; test: Translesion replication assay (primer extension), abasic site; details: gel-extension assay, 60° C.
Protocol: as §3
Primer extension assays were essentially as described in (Ghadessy et al., 2004). Briefly, undamaged oligonucleotides and a 51mer containing a synthetic abasic site were synthesized by Lofstrand Laboratories (Gaithersburg, Md.) using standard techniques and were gel purified prior to use. A 20mer primer (LES—20 P) with the sequence 5′-[…]-3′ (SEQ ID NO: 99) was 5′-labeled with [^32P]ATP (5000 Ci/mmole; 1 Ci=37 GBq) (Pharmacia) using T4 polynucleotide kinase (Invitrogen, Carlsbad Calif.). Radiolabeled primer-template DNAs were prepared by annealing the 5′[^32P] labeled 20mer primer to one of the two following 51mer templates (at a primer template ratio of molar 1:1.5). 1) undamaged DNA (UNDT51T); 5′-AGCTACCATGCCTGCACGAATTCGGCATCCGTCGCGACCACGGTCGCAGCG-3′ (SEQ ID NO: 100); 2) an oligo (LABA51T) containing a synthetic abasic site (indicated as an X in bold font); 5′-AGCTACCATGCCTGCACGACA XCG GCATCCGTCGCGACCACGGTCGCAGCG-3′ (SEQ ID NO: 101). Standard replication reactions of 10 contained 40 mM Tris.HCl at pH 8.0, 5 mM MgCl2, 100 μM of each ultrapure dNTP (Amersham Pharmacia Biotech, NJ), 10 mM DTT, 250 μg/ml BSA, 2.5% glycerol, 10 nM 5′[32P] primer-template DNA and 0.1 Unit of polymerase. After incubation at 60° C. for various times reactions were terminated by the addition of 10 μl of 95% formamide/10 mM EDTA and the samples heated to 100° C. for 5 min. Reaction mixtures (5 μl) were subjected to 20% polyacrylamide/7 M Urea gel electrophoresis and replication products visualized by PhosphorImager analysis.

[4] = 3′-terminal base pair C · G (template base: 3′ primer base), matched

Ratio of fext, fext (mutant polymerase)/fext (wtTaq) ([1]; 3′-terminal base pair A · A): 1.0
Ratio of fext, fext (mutant polymerase)/fext (wtTaq) ([1]; 3′-terminal base pair A · G): 1.0
Ratio of fext, fext (mutant polymerase)/fext (wtTaq) ([1]; 3′-terminal base pair C · C): 1.0
Ratio of fext, fext (mutant polymerase)/fext (wtTaq) ([1]; 3′-terminal base pair G · A): 1.0
Ratio of fext, fext (mutant polymerase)/fext (wtTaq) ([1]; 3′-terminal base pair G · G): 1.0
Ratio of finc, finc (mutant polymerase)/finc (wtTaq) ([2]; base pair C: dCTP): 1
Ratio of finc, finc (mutant polymerase)/finc (wtTaq) ([2]; base pair G: dATP): 1
Ratio of finc, finc (mutant polymerase)/finc (wtTaq) ([2]; base pair G: dGTP): 1
Ratio of finc, finc (mutant polymerase)/finc (wtTaq) ([2]; base pair G: dTTP): 1
Molecule: wtTaq: Thermus aquaticus (Taq) wild type DNA polymerase [reference compound]
Vmax ([1]; 3′-terminal base pair A · A (template base: 3′ primer base)): 1.7 % Min^−1
Km ([1]; 3′-terminal base pair A · A): 27.3 µM
fext, f (mismatched 3′terminus)/f (matched terminus) ([1]; 3′-terminal base pair A · A): 6.7 × 10^−7
Vmax ([1]; 3′-terminal base pair A · G (template base: 3′ primer base)): 28.0 % Min^−1
Km ([1]; 3′-terminal base pair A · G): 45.2 µM
fext, f (mismatched 3′terminus)/f (matched terminus) ([1]; 3′-terminal base pair A · G): 2.1 × 10^−7
Vmax ([1]; 3′-terminal base pair C · C (template base: 3′ primer base)): 0.2 % Min^−1
Km ([1]; 3′-terminal base pair C · C): 39.9 µM
fext, f (mismatched 3′terminus)/f (matched terminus) ([1]; 3′-terminal base pair C · C): 5.9 × 10^−8
Km [1, 4]: 0.016 µM
Vmax [1, 4]: 1477.0 % Min^−1
Vmax ([1]; 3′-terminal base pair G · A (template base: 3′ primer base)): 1.6 % Min^−1
Km ([1]; 3′-terminal base pair G · A): 32.8 µM
fext, f (mismatched 3′terminus)/f (matched terminus) ([1]; 3′-terminal base pair G · A): 5.4 × 10^−7
Vmax ([1]; 3′-terminal base pair G · G (template base: 3′ primer base)): 20.4 % Min^−1
Km ([1]; 3′-terminal base pair G · G): 174 µM
fext, f (mismatched 3′terminus)/f (matched terminus) ([1]; 3′-terminal base pair G · G): 1.3 × 10^−6
Km ([2]; base pair C: dCTP): 1330 µM
finc, f (incorrect dNTP)/f (correct dNTP) ([2]; base pair C: dCTP): 3.86 × 10^−8
Vmax ([2]; base pair C: dCTP (template base: incoming nucleotide)): 3.3 % Min^−1
Vmax ([2]; base pair C: dGTP (template base: incoming nucleotide), correct dNTP): 2356.02 % Min^−1
Km ([2]; base pair C: dGTP, correct dNTP): 0.0366 µM
Km ([2]; base pair G: dATP): 259 µM
finc, f (incorrect dNTP)/f (correct dNTP) ([2]; base pair G: dATP): 8.27 × 10^−5
Vmax ([2]; base pair G: dATP (template base: incoming nucleotide)): 1973.68 % Min^−1
Vmax ([2]; base pair G: dCTP (template base: incoming nucleotide), correct dNTP): 1477 % Min^−1
Km ([2]; base pair G: dCTP, correct dNTP): 0.016 µM
Km ([2]; base pair G: dGTP): 365 µM
finc, f (incorrect dNTP)/f (correct dNTP) ([2]; base pair G: dGTP): 1.7 × 10^−6
Vmax ([2]; base pair G: dGTP (template base: incoming nucleotide)): 57.47 % Min^−1
Km ([2]; base pair G: dTTP): 1.64 µM
finc, f (incorrect dNTP)/f (correct dNTP) ([2]; base pair G: dTTP): 1.65 × 10^−4
Vmax ([2]; base pair G: dTTP (template base: incoming nucleotide)): 25.08 % Min^−1
primer extension on undamaged template (undamaged template): efficiently and rapidly extended primers to the end of the template
abasic site bypass in primer extension [3]: further extension is largely abolished; also recorded: further extension was negligible

B1: 3D1: third round clone, four mismatch extension; SEQ ID NO: 98 (protein)
chain: MAMLPLFEPKGRVLLVDGHHLAYRTFFALKGPTTSRGEPVQVVYGFAKSLLKALKEDGYKAVFVVFDAKAPSFRHKAYEAYRAGRAPTPEDFPRQLALIKELVDLLGFTRLEVPGYEADDVLATLAKKAEKEGYEVRILTADRGLYQLVSDRVAVLHPEGHLITPEWLWEKYGLRPEQWVDFRALVGDPSDNLPGVKGIGEKTALKLLKEWGSLENLLKNLDRVKPENVREKIKAHLEDLRLSLELSRVRTDLPLEVDLAQRREPDREGLRAFLERLEFGSLFHEFGLLESPKALEEAPWPPPEGAFVGFVLSRKEPMWADLLALAAARGGRVHRAPEPYKALRDLKEARGLLAKDLSVLALREGLGLPPGDDPMLLAYLLDPSNTTPEGVARRYGGEWTEEAGERAALSERLFANLWGRLEGEERLLWLYREVERPLSAVLAHMEATGVRLDVAYLRALSLEVAEEIARLEAEVFRLAGHPFNLNSRDQLEMVLFDELRLPALGKTQKTGKRSTSAAVLEALREAHPIVEKILQYRELTKLKSTYIDPLSDLIHPRTGRLHTRFNQTATATGRLSSSDPNLQNIPVRTPLGQRIRRAFIAEEGWLLVVLDYSQIELRVLAHLSGDENLIRVFQEGRDIHTETASWMFGVPREAVDPLMRRAAKTINFGVLYGMSAHRLSQELAIPYEEAQAFIERYFQSFPKVRAWIEKTLEEGRRRGYVETLFGRRRYVPDLEARVKSVREAAERMAFNMPVQGTAADLMKLAMVKLFPRLGETGARMLLQVHDELVLEAPKERAEAVARLAKEAMEGVYPLAVPLEVEVGIGEDWLSAKG
modifications: Mutant Taq polymerase
abasic site bypass in primer extension [3]: clearly display better abasic site bypass than either wtTaq or M1

B2: 3A10: third round clone, abasic site bypass; SEQ ID NO: 86 (protein)
chain: MAMLPLFEPKGRVLLVDGHHLAYRTFFALKGLTTSRGEPVQVVYGFAKSLLKALKEDGYKAVFVVFDAKAPSFRHKAYEAYRAGRAPTPQDFPRQLALIKELVDLLGFTRLEVPGYEADDVLATLAKKAEKEGYEVRILTADRGLYQLVSDRVAVLHPEGHLITPEWLWEKYGLRPEQWVDFRALVGDPSDNLPGVKGIGEKTALKLLKEWGSLENLLKNLDRVKPENVREKIKAHLEDLRLSLELSRVRTDLPLEVDLAQGREPDREGLRAFLERLEFGSLLHEFGLLESPKALEEAPWPPPEGAFVGFVLSRKEPMWADLLALAAARGGRVHQAPEPYKALRDLKEARGLLAKDLSVLALREGLGLPPGDDPMLLAYLLDPSNTTPEGVARRYGGEWTEEAGERAALSERLFANLWGRLEGEERLLWLYREVERPLSAVLAHMETTGVRLDVAYLRALSLEVAEEIARLEAEVFRLAGRPFNLNSRDQLERVLFDELGLPAIGKTEKTGKRSTSAAVLEALREAHPIVEKILQYRELTKLKSTYIDPLPDLIHPRTGRLHTRFNQTATATGRLSSSDPNLQNIPVRTPLGQRIRRAFIAEEGWLLVVLDYSQMELRVLAHLSGDENLIRVFQEGKDIHTQTASWMFGVPPEAVDPLMRRAAKTVNFGVLYGMSAHRLSQELSIPYEEAVAFIERYFQSFPKVRAWIEKTLEEGRRRGYVETLFGRRRYVPDLNARMKSVRGAAERMAFNMPVQGTAADLMKLAMVKLFPRLREMGARMLLQVHDELLLEAPQARAEEVAALAKEAMEKAYPLAVPLEVEVGIGEDWLSAKE
modifications: Mutant Taq polymerase
abasic site bypass in primer extension ([3]; listed as A10): clearly better at both abasic site and CPD extension and bypass than both wild type and M1; also recorded: clearly display better abasic site bypass than either wtTaq or M1
